According to the supplement of paper PMC10724198:
± gives the standard deviation of the averaged measurements.

Test system: Saccharomyces cerevisiae
Assay: protein stability index of tFT-peptide fusion (C-terminal peptide) (PSI (0-1 scale)); higher = more stable (slower turnover)
Conditions: genetic background: wild type; temperature: 30 C
Method: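 Multiplexed protein stability (MPS) profiling in S. cerevisiae. Random 12-aa peptides (tFT-X12 library) are fused to the C-terminus of a sfGFP-mCherry tandem fluorescent timer, after mCherry and a GGGS linker. Cells are FACS-sorted into 8 mCherry/sfGFP bins and deep-sequenced. The protein stability index (PSI) is the read-weighted bin average, scaled from 0 (unstable) to 1 (stable). Only peptides with >10 reads are reported; cells were grown at 30 °C in SC-His with glucose.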
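Also: PSI is a weighted mean of sequencing reads over stability bins, variants kept only with over 10 reads, mCherry proximal and sfGFP distal, peptide attached via GGGS linker.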

| Sequence | protein stability index |
| --- | --- |
| RPLCRSFPPASL | 0.788 ± 0.058 |
| LTHLADVRSVLS | 0.708 ± 0.043 |
| EPPRSPRSLPPL | 0.661 ± 0.0073 |
| WGVWYGGAVRVG | 0.5 ± 0.052 |
| SFFLSFFSPLVL | 0.63 ± 0.038 |
| VDVSGVCEFVLG | 0.706 ± 0.1 |
| RCACLSCSFLLQ | 0.679 ± 0.017 |
| IFRASTGASYRT | 0.5738 ± 0.0034 |
| NAGNDVFSLDIC | 0.683 ± 0.034 |
| SLLRLFFLALSY | 0.542 ± 0.071 |
| RRTGGEDKHARP | 0.67 ± 0.02 |
| KKEQPKEKQGNK | 0.732 ± 0.053 |
| HNPRTCRAPLSL | 0.671 ± 0.0079 |
| PPPPPPPPAPPY | 0.725 ± 0.017 |
| QYSLGLGQVQVI | 0.662 ± 0.033 |
| SYGRECCGYASA | 0.764 ± 0.081 |
| KKVTEKSKNEKR | 0.692 ± 0.053 |
| PTLCLPESSGRL | 0.705 ± 0.028 |
| AGRVRERMRVYG | 0.639 ± 0.01 |
| RRPPVFCIPLFS | 0.639 ± 0.015 |
| RAAATTELAARF | 0.697 ± 0.041 |
| LGLEALRETSQP | 0.6448 ± 0.005 |
| ALYLFHAPRTPP | 0.637 ± 0.014 |
| SPSPALPPRIRF | 0.818 ± 0.15 |
| LSPPPHTSVPRL | 0.659 ± 0.12 |

| Sequence | protein stability index |
| --- | --- |
| VGGGGRRGKVWG | 0.649 ± 0.035 |
| IVGEDRRRTAFR | 0.678 ± 0.026 |
| TNTPVYRQAPQM | 0.657 ± 0.02 |
| PYWPLLLTNCQL | 0.734 ± 0.063 |
| NINKINKKCTRV | 0.645 ± 0.055 |
| CFAPRAPIRRFF | 0.733 ± 0.032 |
| SLRLSRFLLTAP | 0.5536 ± 0.0031 |
| EWTTEQRSVGPR | 0.683 ± 0.02 |
| CVTGPIDKLRLL | 0.5947 ± 0.0023 |
| PLHSRPTRPKLE | 0.71 ± 0.092 |
| VVSSAYRLKARP | 0.696 ± 0.046 |
| ALSVASVAVVPL | 0.56 ± 0.015 |
| IPRHLGTRVVPI | 0.682 ± 0.072 |
| GCSCFLAGAFVL | 0.732 ± 0.038 |
| FCVFSFAAPGFP | 0.6746 ± 0.00074 |
| RKDEKEMVRKTK | 0.682 ± 0.061 |
| DITKNGKSKMLK | 0.664 ± 0.051 |
| RLAYSSGKAFRV | 0.702 ± 0.012 |
| DDFQVFCSNGMG | 0.708 ± 0.018 |
| VRRGAAGDDWGW | 0.869 ± 0.057 |
| RARARSVLGRRD | 0.672 ± 0.0091 |
| EEGGEVREGKQA | 0.702 ± 0.019 |
| GGEICPARECGA | 0.648 ± 0.042 |
| TRYRQKRMSITT | 0.581 ± 0.014 |
| IDGGSAWSAVSL | 0.687 ± 0.018 |

| Sequence | protein stability index |
| --- | --- |
| TRCLPPPVPPSL | 0.729 ± 0.014 |
| VLDRGGAGAVCV | 0.649 ± 0.024 |
| ISSIRKNSKREE | 0.755 ± 0.031 |
| VREKNHTLQMET | 0.646 ± 0.017 |
| SMVGYPLPVSRN | 0.671 ± 0.039 |
| IRKPRRHRTVET | 0.73 ± 0.057 |
| GQNGFVDGGCVL | 0.677 ± 0.0081 |
| VGRVGEGGGGRG | 0.679 ± 0.046 |
| SRYYMDRGTLLE | 0.625 ± 0.018 |
| LPAARQSVLPPA | 0.732 ± 0.0085 |
| FVASVGVGGGVG | 0.58 ± 0.013 |
| GWEVGGGRLGVV | 0.716 ± 0.11 |
| HPPTPPPPFPPP | 0.659 ± 0.018 |
| DNSSLGSIGTDI | 0.645 ± 0.046 |
| AWWWGCSSIGYW | 0.787 ± 0.085 |
| YPLLPSERDVKA | 0.728 ± 0.023 |
| TKDRGRVYRQRG | 0.798 ± 0.051 |
| VIGGRQGVVRHR | 0.68 ± 0.025 |
| LPLPPALPSPSL | 0.658 ± 0.027 |
| KRWKSKYELGST | 0.68 ± 0.063 |
| PVSPPRLPRPPP | 0.615 ± 0.017 |
| VGRGGGVWRLEG | 0.699 ± 0.045 |
| RLNKPRAPEKKA | 0.717 ± 0.11 |
| RTSKSLSKVESW | 0.6415 ± 0.0031 |
| NDLRRAVSARYV | 0.676 ± 0.032 |

| Sequence | protein stability index |
| --- | --- |
| ALVPESDLGLNF | 0.714 ± 0.026 |
| PDLTVYNLCGGC | 0.774 ± 0.098 |
| ASRRSRLPWLLL | 0.629 ± 0.0083 |
| PSSPPPPPLPPC | 0.649 ± 0.058 |
| SALGPVLCRGSY | 0.675 ± 0.067 |
| IWAKLGFRLQYS | 0.701 ± 0.13 |
| LGGGGWGGACGE | 0.66 ± 0.02 |
| LCPSFAIALSSD | 0.692 ± 0.013 |
| LTTRTQTDDRKR | 0.682 ± 0.0077 |
| GGLICRHGGGRG | 0.706 ± 0.02 |
| TWSSLVSAVRRN | 0.701 ± 0.079 |
| RYKTESKRDIEK | 0.696 ± 0.062 |
| RCTLPLSPSCSR | 0.6604 ± 0.0037 |
| EWEEGREIGGRV | 0.69633 ± 0.00068 |
| VGGAPLVSACCI | 0.596 ± 0.022 |
| PPFFSHDWYLRV | 0.695 ± 0.076 |
| RVGLRGGCGSNG | 0.725 ± 0.029 |
| ALSTALVIPLLY | 0.58818 ± 0.00035 |
| VTVGGAWSGTRG | 0.647 ± 0.06 |
| SRPLSSPSPPPS | 0.723 ± 0.043 |
| PPPAPSPPPSPP | 0.611 ± 0.0099 |
| GVGGVARGERIP | 0.678 ± 0.0085 |
| GVVLDVRCVGLF | 0.661 ± 0.021 |
| GWDQSGVVFVCG | 0.605 ± 0.017 |
| VSLGHCGFYSRV | 0.648 ± 0.039 |

| Sequence | protein stability index |
| --- | --- |
| SFFSPFPSRICS | 0.829 ± 0.032 |
| PHPPLPLSPPPP | 0.72 ± 0.0084 |
| FPSCVLGGWYCG | 0.7114 ± 0.0016 |
| PPLPPPRPLSPC | 0.713 ± 0.094 |
| LHISYPVPPLRM | 0.633 ± 0.11 |
| GESRDEGRGVRA | 0.638 ± 0.069 |
| FVSGLEMCRTCF | 0.672 ± 0.025 |
| EEPVVSNPPLLA | 0.688 ± 0.033 |
| RSGVRWGGGGGG | 0.711 ± 0.035 |
| TTPYVRTSPRKP | 0.654 ± 0.0091 |
| TCRYSSIVDKGS | 0.612 ± 0.008 |
| VCFSCLFHESCL | 0.726 ± 0.042 |
| TISRRSCGPAQK | 0.6743 ± 0.0041 |
| LSHAQIDPEFTE | 0.697 ± 0.042 |
| AHSAPGHPHDFP | 0.664 ± 0.046 |
| FSLLSSSSFFVL | 0.591 ± 0.01 |
| APTQANLRSSRS | 0.73 ± 0.022 |
| PPTPQRRRSPPP | 0.7326 ± 0.0066 |
| GILRSDAVWSFI | 0.699 ± 0.042 |
| GEEGRNEQKQDA | 0.7249 ± 0.0011 |
| LLPLAPVCVIIL | 0.54 ± 0.041 |
| FLSRPIGAAIWA | 0.543 ± 0.026 |
| RGGTGGWKGVWV | 0.71 ± 0.022 |
| LVGSRGCGKIVW | 0.6 ± 0.026 |
| RSLPPGFPSTLL | 0.652 ± 0.014 |

| Sequence | protein stability index |
| --- | --- |
| VSRGRSAKKSAI | 0.695 ± 0.06 |
| RTNNIAKNSKNR | 0.713 ± 0.058 |
| KTKKIMPEQIKK | 0.616 ± 0.017 |
| PPPLPPPSLLPT | 0.762 ± 0.043 |
| VEKQFSVWSFRG | 0.68 ± 0.031 |
| VRGRQGGGVGRA | 0.682 ± 0.1 |
| VWCGVLVRSCWV | 0.52 ± 0.0091 |
| RGWARGRQGCGG | 0.726 ± 0.011 |
| PPTNTPTPPSYV | 0.691 ± 0.025 |
| SLVLLNQHARER | 0.79 ± 0.036 |
| PSTRVPATTHTL | 0.6983 ± 0.00091 |
| DVHNRSPNRAPE | 0.671 ± 0.042 |
| TTGKEAQYEARK | 0.664 ± 0.071 |
| FFDFCACICTFF | 0.655 ± 0.045 |
| QPSSYPEANRQG | 0.671 ± 0.028 |
| FSSSSLFFSRTL | 0.677 ± 0.052 |
| RVLPASRFSFLF | 0.743 ± 0.036 |
| CFLVLFAHPFVL | 0.555 ± 0.007 |
| RCNFHILEIRKY | 0.667 ± 0.0057 |
| GQVATAGDIRVR | 0.69065 ± 0.00026 |
| GQMDGGMGGKVI | 0.582 ± 0.062 |
